Assay results reported in patent publication US20240166768A1 (YEDA RESEARCH AND DEVELOPMENT, published 2024).

Molecular target: BSA (bovine, UniProt P02769)
Test: ELISA heatmap, OD630
Experimental: ELISA reactions were carried out using flat-bottom MaxiSorp™ 96-well plates (Invitrogen). Antigen coating was performed in PBS at 1001 per well and left overnight at 4° C. For standard dose response ELISA assays, antigens were plated at a concentration of 1 μg/ml. For comparative ELISA assays with multiple antigen targets, antigens were plated at a constant molar concentration of 50 nM. The plates were washed 5 times with washing buffer (1×PBS with 0.05% Tween-20 (Sigma-Aldrich)) and incubated with 1001 blocking buffer (1×PBS with 1% BSA) for 1 h at room temperature. The blocking solution was subsequently replaced by serial dilutions of either mono- or polyclonal antibodies or serum samples for 2.5 h at RT. For standard dose response ELISA assays, antibodies were introduced over a range of dilutions whereas for ELISA screens, antibodies were introduced at 100 nM. Serum samples were assayed at a dilution of 1:100. Plates were washed 5 times with washing buffer and then incubated with anti-human IgG secondary antibody conjugated to horseradish peroxidase (HRP) (Jackson Immuno Research) in PBS at a 1:5,000 dilution. After washing the plates for additional 5 times, the plates were developed using TMB (Thermo Fisher) and absorbance was measured at 630 nm with an ELISA microplate reader (Synergy HTX plate reader, Biotek).
Strikingly, in 3/4 patients, monoclonal antibodies that bound MMP14 with various degrees of effectiveness and specificity were detected, confirming the analysis using polyclonal patient-derived antibodies. In order to further examine the specificity of the monoclonal antibodies, the binding activity of the antibodies was tested in different dilutions by ELISA.

Chain of BSA (P02769 25-607 limits assumed): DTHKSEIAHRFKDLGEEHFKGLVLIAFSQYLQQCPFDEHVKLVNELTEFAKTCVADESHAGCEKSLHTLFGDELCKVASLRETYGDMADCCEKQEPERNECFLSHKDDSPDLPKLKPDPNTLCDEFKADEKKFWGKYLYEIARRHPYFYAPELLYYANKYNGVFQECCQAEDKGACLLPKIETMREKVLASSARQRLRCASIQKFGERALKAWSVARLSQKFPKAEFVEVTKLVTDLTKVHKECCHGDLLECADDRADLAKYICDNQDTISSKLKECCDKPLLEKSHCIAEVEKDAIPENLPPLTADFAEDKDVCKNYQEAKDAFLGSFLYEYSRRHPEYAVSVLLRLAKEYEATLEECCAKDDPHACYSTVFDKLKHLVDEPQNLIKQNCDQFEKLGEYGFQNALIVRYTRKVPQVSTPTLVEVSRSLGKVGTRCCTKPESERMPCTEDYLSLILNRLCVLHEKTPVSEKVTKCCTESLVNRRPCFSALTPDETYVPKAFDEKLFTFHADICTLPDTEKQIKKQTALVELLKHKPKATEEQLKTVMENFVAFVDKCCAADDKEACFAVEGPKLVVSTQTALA

binding result	Binder
no binding (tested: 100 nM)	T28 (antibody, V domains shown) VH: QVQLQESGPGLVKPSETLSLSCAVSGGSIRGYSWSWIRQPPGKGLEWIADMLYTGTTTFNPSLKSRVTISVDTSKNQFSLKLTSVTAADTAVYYCARGPTVSGPIVVDYWGPGTLVTVSS VL: NFMLTQPHSVSESPGKTVTISCTGSSGSIASNYVQWYQQRPGSAPTTLIYEDKQRPSGVPDRFSGSIDSSTNSASLTISGLKTEDEADYYCQSFDSSNRWVFGGGTKVTVL
no binding (tested: 100 nM)	T15 (antibody, human IgG1, V domains shown) VH: EVQLVESGGGLVQPGGSLRLSCAASGFTFNNYWMTWVRQAPGKGLEWVANVNQDGNEKNYVDSVRGRFTISRDNAKNSLHLQMKSLISDDTAVYYCARVGGGDYYDSSGYYWFDTWGQGALVTVSS VL: not shown
no binding (tested: 100 nM)	T6 (antibody, V domains shown) VH: QVQLQQSGPGLVKPSQTLSLTCAISGDSVSSNSAAWNWIRQSPSRGLEWLGRTYYRSRWYSDYAFSVRSRIIVKADTSRNLFSLQLNSMTPEDTAIYYCARDLGIAAADWFDSWGQGTLVTVSS VL: EIVMTQSPATLSVSPGDRATLSCRASQSVSNRLAWYQQKPGQAPRLLIYDASTRATDIPARFSGSGSGTEFTLTISSLQSEDFAIYFCHQYHNWPGFGPGTKLEIK
no binding (tested: 100 nM)	T1 (antibody, V domains shown) VH: EVQLVESGGGLEQPGRSLRLSCAASGFSFGDNAMTWFRQAPGKGLEWVGIIRAKGYGGTTEYAASVKGRFTISRDDSKSIAFLQMNNVKVEDTGVYYCAKYASGWEVGFDPWGQGTLVTVSS VL: AIQMTQSPSSLSASVGDRVTITCRASQFIRNDLGWYQQKPGRAPKLLIYAASGLHSGVPARFSGNGSATDFTLTITSLQPEDFATYYCLQDYNFPWTFGQGTKVEIK
no binding (tested: 100 nM)	T25 (antibody, V domains shown) VH: EVQLVESGGGLVKPGGSLRLSCAPSGFIFSNTWMSWVRQAPGKGLEWVGHIKSKADGGTTDYAAPVKGRFTISRDDSRNTLYLQMDSLKTEDTGVYYCTTGWYSTLDYWGQGTLVTVSS VL: QSVLTQPPSASGTPGQRVTISCSGSTSNVGTNYVYWCQQFPGAAPKLLMYRNDRRPSGVPDRFSGSKSGTSASLAISGLRSEDEADYYCAAWDDSLSSWVFGGGTKLTVL
no binding (tested: 100 nM)	T29 (antibody, V domains shown) VH: QLQLQESGPGLVKPSETLSLTCTVSGGSISSSSYYWGWIRQPPGKGLEWIGSLSYTGSTYYNPSLKSRVTISLDTSKNQFSLKLSSVTAADTAVYYCARESGSGGTHTDSWGQGTLVSVSS VL: QSVLTQPPSVSAAPGQKVTISCSGSSSNIGNNYVSWYQQLPGTAPKLLIYDNNKRPSGIPDRFSGSKSGTSATLGISGLQTGDEADYYCGTWDSSLSAWVFGGGTKLTVL
no binding (tested: 100 nM)	T2 (antibody, V domains shown) VH: QVQLVQSGAEVKKPGASVNVSCKASGYNFKAYGVGWVRQAPGQGLEWMGWITPYNGKTNYAQKIQGRVTMTTDTSTTTAYMELRSLQPDDTAMYFCARTPAALASFDYWSQGTLVTVSS VL: DIQMTQSPSTLSASVGDRVTITCRASQSISSWLAWYQQKAGKAPKLLIFDASTLQSGVPSRFSGSGSGTEFSLTISSLQPDDFATYYCQQYYSYSTFGQGTKVEIR
no binding (tested: 100 nM)	T24 (antibody, V domains shown) VH: QLQLQESGSGLVKPSQTLSLTCAVSGGSISSSDYSWSWIRQPPGKGLEWIGYIYHSGNTYYNPSVKSRVTISLDSSKNHFSLTLTSVTAADTAIYYCARDPGGNSGWFDPWGQGALVTVSS VL: SYELTQPTSVSVSPGQTARITCSGDALPSQYAYWYQQKPGQAPILIIYKDNKRPSGIPERFSGSSSGTRVTLTISGVQPEDEADYYCQSADRSGRYVFGTGTRVPVL
no binding (tested: 100 nM)	T20 (antibody, V domains shown) VH: QVQLQESGPGLLKPSQTLSLTCTVSGAFLNSGGYYWTWIRQHPGKGLEWIGYIYYSGTTYYNPSLKSRVTISVDTSKNQFSLNVNSVIAADTAVYYCARAPRIPFGEVIGGAAFDVWGQGTTVIVSS VL: EIVLTQSPGTLSLSPGERATLSCRASQSVTSNFVGWYQQKPGQAPRLLIYAASSRPTGIPERFSGSGSGTDFTLTISRLEPEDFAVYYCEQYGSSPRTFGPGTKVEIK
no binding (tested: 100 nM)	T19 (antibody, V domains shown) VH: EVQLLESGGGLVQPGGSLRLSCAASGFTFDNYGMSWVRQAPGKGLEWVSVISSGGVGTYYADSVKGRFIISRDNAKNTLYLQMNSLRAEDTAVYYCAKDLLRYESSGYSPWGQGTLVTVSS VL: EIVLTQSPATLSLSPGDRATLSCRASQSVNTYLAWYQHKPGQAPRLLIYDASKRATGIPARFSGSGSGTDFTLTISSLEPEDFAVYYCQQRANRPPLTFGGGTKVEIK
no binding (tested: 100 nM)	T5 (antibody, V domains shown) VH: QVQLVESGGGVVQPGRSLRLSCAASGFTFSSHAMHWVRQAPGKGLQWVALISYDGYNKYYAESVQGRFTLSRDNSKNTLYLQMNSLRAEDTAVYYCARDRDSSGYIFDYWGQGTLVTVSS VL: DIQMTQSPSSLSASVGDRVTITCQASQDISNYLNWYQQKPGKAPKVLIYDASNLERGVPSRFSGSGSGTAFTFTISSLQPEDIATYYCQQYDNLPSFGGGTKVEIK
no binding (tested: 100 nM)	T18 (antibody, V domains shown) VH: EVQLVESGGGLVQPGGSLRLSCAASGFTFSSYWMTWVRQAPGKGLEWVANIKPDGSEKNYVDSVKGRFTISRDNAENSLYLQMNSLRAEDTAVFYCARDLRYCSSTSCSPALDYWGQGTLLTVSS VL: DIQMTQSPSSLSASVGDRVTITCRASQSIASYLNWYQQKPGRAPKLLIYAASTSGVPSRFSGSGSGTDFTLTISSLQPEDFATYYCQQSYTTPRTFGQGTKVEIK
no binding (tested: 100 nM)	T4 (antibody, V domains shown) VH: QVQLVQSGGEVKKPGASAKVSCKTSGFTFTSYGISWVRQAPGQGLEWMGWINTYNGNTKYAQRLQGRVSMTTDTSTNTAYMELRSLRSDDTAVYYCARGQGRYGDYIYNHWGQGTLVIVSS VL: DIQMTQSPSTLSASVGDRVTITCRASQIISSWVAWYQQRPGKAPKLLIFDASILESGVPSRFSGSATGTEFSLTISGLQPDDFATYYCQHYNDFPLSFGGGTKVEIK
no binding (tested: 100 nM)	T14 (antibody, human IgG1, V domains shown) VH: EVQLVESGGGLVQPGGSLRLSCAVSGFTFNNYWMTWVRQAPGKGLEWVANIKGDGSEKTYVDSVKGRFTVSRDNANNSLHLQMKSLRAEDTAVYYCARVGGGDYYDSSGYYWLDTWGQGTLVTVSS VL: not shown
no binding (tested: 100 nM)	T21 (antibody, V domains shown) VH: QVQLQESGPGLVKPSQTLSLTCTVSGGSFSNSNYYWSWIRQPAGKGLEWIGHIYASAITHYNPSLKSRVTISKDTSKNQFSLNLRSVTAADTAVYFCARGFRLAAEAYYHGMDVWGQGTTVTVSS VL: DIQMTQSPSSLSASVGDRVTITCRASQSINNFLNWYQQKPGKAPKLLIYGASSLQSGVPSRFSASGSGTDFSLTISGLIPEDFAIYYCQQSDTTPWTFGQGTKVDIK
